Values of other authors as cited in publication PMC4476730.
Where two headings read alike, the source gives them in different places.

Assays:
[1] = target: CBP KIX (Homo sapiens) (UniProt Q92793)
[2] = target: CBP KIX (Homo sapiens) (UniProt Q92793); remark: listed apart in the source

UniProt Q92793, sequence (Q92793 584-669): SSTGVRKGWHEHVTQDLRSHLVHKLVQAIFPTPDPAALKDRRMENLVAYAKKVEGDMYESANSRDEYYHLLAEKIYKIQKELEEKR

In the case of E2A AD2 (from UniProt P15923), the Kd [1] is given as 7.2 µM and the Kd [2] is given as 17 µM.
